Measurements from publication PMC6954902 (Protein & Cell, 2019).

Target: T1, MtEccCb1-ATPase3 (ATPase3 domain of EccCb1 from Mycobacterium tuberculosis, residues 315-591) (Mycobacterium tuberculosis H37Rv, UniProt P9WNB1 315-591)
T1 sequence: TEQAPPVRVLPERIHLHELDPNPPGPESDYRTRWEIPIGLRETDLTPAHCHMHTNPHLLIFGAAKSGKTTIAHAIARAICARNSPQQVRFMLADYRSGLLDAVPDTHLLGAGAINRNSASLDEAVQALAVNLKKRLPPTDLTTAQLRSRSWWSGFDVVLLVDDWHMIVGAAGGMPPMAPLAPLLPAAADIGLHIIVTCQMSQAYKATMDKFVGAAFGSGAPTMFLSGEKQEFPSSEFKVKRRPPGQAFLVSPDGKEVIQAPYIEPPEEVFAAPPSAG
Assay: ITC
Conditions: both partners purified

B1: MtEsxB (culture filtrate protein CFP-10 of Mycobacterium tuberculosis) (natural protein)
chain: MAEMKTDAATLAQEAGNFERISGDLKTQIDQVESTAGSLQGQWRGAAGTAAQAAVVRFQEAANKQKQELDEISTNIRQAGVQYSRADEEQQQALSSQMGF
B1 showed a Kd of 34 µM.

For RADEEQQQALSSQMGF (source: synthetic peptide) [wild-type peptide corresponding to the C-terminal 16-residues of MtEsxB], the Kd was 55 µM.
